Test results taken from the supplement of paper PMC10126150.
± gives the standard deviation of the averaged measurements.

Tested on: ATP
Assay: switch fluorescence ratio, 500 uM ATP over buffer (Cy3 cluster intensity, sum of 5 cycles each) (fold (ratio)); higher = stronger signal-on switching upon ATP binding; sequences stand for … in TCGTCGGCAGCGTCAGATGTGTATAAGAGACAGTTTTTTTTTTTTTTTTTTTTTTTTT…TC
Settings: aptamer strand: ATP DNA aptamer (quencher-CACCTGGGGGAGTATTGCGGAGGAAGG + anchor), 100 nM annealed; ATP concentration: 500 uM
Method in brief: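 Five buffer/ATP imaging cycles were run on Cy3-labelled switching-strand clusters on a modified Illumina MiSeq flow-cell, with NaOH stripping and re-annealing between cycles. In each cycle, clusters annealed to 100 nM quencher-labelled ATP aptamer were imaged in selection buffer, then after 15 min with 500 uM ATP at 22 °C. Per cluster, the fluorescence ratio is summed target-cycle over summed buffer-cycle Cy3 intensity, averaged per switch-domain sequence. Only clusters within 100-1000 RFU were kept.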
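Also: ATP exposure 15 min at 22 °C before imaging.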

| Sequence | switch fluorescence ratio |
| --- | --- |
| GGAATATTGG | 1.02 ± 0.019 |
| GGAATCAGGT | 1.014 ± 0.0065 |
| GGAATCCTTT | 0.998 ± 0.0088 |
| GGAATCGGCG | 0.988 ± 0.017 |
| GGAATCTAAC | 1.03 ± 0.048 |
| GGAATGCTTC | 1.06 ± 0.041 |
| GGAATGGATA | 1 ± 0.035 |
| GGAATGGGGT | 0.997 ± 0.024 |
| GGAATGGGTG | 1 ± 0.057 |
| GGAATTATTT | 1.017 ± 0.01 |
| GGAATTCCCG | 0.98 ± 0.054 |
| GGAATTGGTT | 1.01 ± 0.061 |
| GGAATTTAGG | 1 ± 0.015 |
| GGAATTTTGC | 1.03 ± 0.031 |
| GGAATTTTTT | 0.9887 ± 0.0051 |
| GGACACGCAG | 1.02 ± 0.047 |
| GGACACGGTA | 1.12 ± 0.029 |
| GGACACGTTG | 1.05 ± 0.083 |
| GGACAGGGGG | 0.9633 ± 0.0051 |
| GGACATTGAC | 1.08 ± 0.02 |
| GGACCCGGTT | 1.04 ± 0.029 |
| GGACCGGCCG | 1.01 ± 0.076 |
| GGACGATCGG | 0.9765 ± 0.0046 |
| GGACGGAATG | 0.955 ± 0.02 |
| GGACGGTCTT | 1.01 ± 0.043 |

| Sequence | switch fluorescence ratio |
| --- | --- |
| GGACGTAGTT | 0.9578 ± 0.0095 |
| GGACTAGTTA | 0.99 ± 0.021 |
| GGACTGGGGA | 1.0045 ± 0.00084 |
| GGACTGGTCG | 1 ± 0.022 |
| GGACTTCGCG | 1.01 ± 0.085 |
| GGACTTGTCT | 1.01 ± 0.053 |
| GGACTTTTTT | 1.03 ± 0.016 |
| GGAGAATTTA | 1.02 ± 0.034 |
| GGAGACGATA | 1.04 ± 0.0032 |
| GGAGACTCAA | 0.988 ± 0.016 |
| GGAGAGGGTC | 1.049 ± 0.0064 |
| GGAGAGTGCT | 0.985 ± 0.015 |
| GGAGAGTGGT | 1.02 ± 0.023 |
| GGAGATATTT | 1 ± 0.011 |
| GGAGATCAGG | 1.03 ± 0.027 |
| GGAGATGGGG | 1.02 ± 0.018 |
| GGAGATTGAA | 0.992 ± 0.019 |
| GGAGATTTGG | 0.979 ± 0.011 |
| GGAGCAGCTA | 1.06 ± 0.028 |
| GGAGCATGAG | 2.47 ± 0.14 |
| GGAGCATGGG | 1.19 ± 0.04 |
| GGAGCGCTGG | 1.05 ± 0.02 |
| GGAGCGGCGG | 1.02 ± 0.069 |
| GGAGCGGTGG | 0.955 ± 0.042 |
| GGAGGAGGGG | 1 ± 0.023 |

| Sequence | switch fluorescence ratio |
| --- | --- |
| GGAGGCAGGA | 1.015 ± 0.0036 |
| GGAGGGACTT | 1.39 ± 0.68 |
| GGAGGGAGCG | 1 ± 0.03 |
| GGAGGGGGAA | 1 ± 0.031 |
| GGAGGGGGGC | 1.09 ± 0.16 |
| GGAGGGGTTT | 1.01 ± 0.04 |
| GGAGGTAATT | 0.981 ± 0.027 |
| GGAGGTAGTC | 0.99 ± 0.033 |
| GGAGTAGGTA | 1 ± 0.031 |
| GGAGTATTAG | 0.999 ± 0.072 |
| GGAGTCGGGC | 0.981 ± 0.04 |
| GGAGTGCCAG | 1 ± 0.027 |
| GGAGTGGGAC | 1.12 ± 0.14 |
| GGAGTGGGGG | 0.984 ± 0.036 |
| GGAGTTCGGG | 0.978 ± 0.021 |
| GGAGTTCGTT | 1.09 ± 0.052 |
| GGAGTTGCGG | 0.9089 ± 0.0048 |
| GGAGTTTAGT | 1.008 ± 0.0016 |
| GGAGTTTTTT | 0.968 ± 0.029 |
| GGATAAAAGG | 0.988 ± 0.011 |
| GGATAAACGG | 1.03 ± 0.082 |
| GGATAAAGAC | 1.37 ± 0.41 |
| GGATAATGCT | 0.9597 ± 0.0094 |
| GGATACATGT | 1.003 ± 0.0031 |
| GGATACGGGA | 1.05 ± 0.084 |

| Sequence | switch fluorescence ratio |
| --- | --- |
| GGATACTCGC | 1.126 ± 0.01 |
| GGATACTGCA | 1.043 ± 0.0054 |
| GGATAGGGTA | 0.974 ± 0.043 |
| GGATAGGTTT | 1.01 ± 0.034 |
| GGATAGTGTG | 0.997 ± 0.014 |
| GGATATAAAT | 0.972 ± 0.0099 |
| GGATATCAAG | 1.01 ± 0.016 |
| GGATATGTGG | 0.99 ± 0.025 |
| GGATATTCCA | 1.01 ± 0.067 |
| GGATCAAAAG | 1.01 ± 0.018 |
| GGATCATGGT | 1.034 ± 0.007 |
| GGATCTAGAA | 0.9644 ± 0.008 |
| GGATCTGGTG | 1.022 ± 0.0079 |
| GGATGAAACT | 1.012 ± 0.0044 |
| GGATGAGCGA | 1.18 ± 0.19 |
| GGATGAGTTA | 0.983 ± 0.015 |
| GGATGATGCC | 0.986 ± 0.033 |
| GGATGCAGAT | 0.997 ± 0.0094 |
| GGATGCAGGA | 1.04 ± 0.042 |
| GGATGCCAGT | 0.998 ± 0.013 |
| GGATGCTAGA | 0.996 ± 0.024 |
| GGATGCTGGG | 1 ± 0.015 |
| GGATGCTTGT | 1.009 ± 0.0092 |
| GGATGGGCAA | 1.026 ± 0.0026 |
| GGATGGGGAG | 0.971 ± 0.02 |
